Data on four molecules can be found in patent EP4671282A1 (Jiangsu Hengrui Pharmaceuticals Co., Ltd., dated 2025).

The EC50 is the concentration needed to bring the measured effect to its halfway point. Lower therefore signals greater potency. By Kd is commonly meant the equilibrium constant for the complex coming apart. A word on the koff: it is a measure of how fast the partners let go of each other. What is called kon is the rate constant with which the complex forms. As usually defined, the IC50 is the concentration that gives 50% inhibition.

In experiment [1] the target is T1, IL-36R on human skin squamous cell line A431 (human, UniProt Q9HB29 20-575).
T1 sequence (looked up): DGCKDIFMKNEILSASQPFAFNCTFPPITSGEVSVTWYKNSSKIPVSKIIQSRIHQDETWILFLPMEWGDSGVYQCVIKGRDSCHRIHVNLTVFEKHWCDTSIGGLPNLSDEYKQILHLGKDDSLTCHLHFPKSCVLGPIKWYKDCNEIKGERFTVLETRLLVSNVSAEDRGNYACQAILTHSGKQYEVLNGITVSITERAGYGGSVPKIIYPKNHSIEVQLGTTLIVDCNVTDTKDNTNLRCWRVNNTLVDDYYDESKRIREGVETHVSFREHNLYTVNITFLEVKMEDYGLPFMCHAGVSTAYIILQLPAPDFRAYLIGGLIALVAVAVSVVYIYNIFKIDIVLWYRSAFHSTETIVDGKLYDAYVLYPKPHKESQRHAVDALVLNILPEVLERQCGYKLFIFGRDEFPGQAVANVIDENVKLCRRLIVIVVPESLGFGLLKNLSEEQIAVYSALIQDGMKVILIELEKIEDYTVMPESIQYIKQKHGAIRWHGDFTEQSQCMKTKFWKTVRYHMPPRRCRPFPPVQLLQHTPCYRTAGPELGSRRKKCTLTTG
Kind of experiment: cell-based or functional assay.

The target in experiment [2] is T2, human IL-23 protein (ACROBiosystems, ILB-H52W5) (human, UniProt Q9NPF7 20-189; P29460 23-328).
T2 sequence (looked up) 1: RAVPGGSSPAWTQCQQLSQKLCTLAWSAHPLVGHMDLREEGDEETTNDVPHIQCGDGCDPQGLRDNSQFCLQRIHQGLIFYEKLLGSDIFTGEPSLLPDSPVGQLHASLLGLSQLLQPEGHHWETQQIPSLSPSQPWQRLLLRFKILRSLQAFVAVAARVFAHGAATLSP
T2 sequence (looked up) 2: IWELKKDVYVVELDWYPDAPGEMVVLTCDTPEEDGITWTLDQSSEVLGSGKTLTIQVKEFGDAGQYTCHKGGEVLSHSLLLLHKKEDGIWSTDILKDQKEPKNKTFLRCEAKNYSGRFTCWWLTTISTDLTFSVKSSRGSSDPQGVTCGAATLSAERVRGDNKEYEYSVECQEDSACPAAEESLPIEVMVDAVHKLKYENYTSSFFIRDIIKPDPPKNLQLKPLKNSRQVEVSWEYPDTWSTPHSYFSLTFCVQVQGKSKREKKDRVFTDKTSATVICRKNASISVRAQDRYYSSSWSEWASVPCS
As to the kind of experiment: cell-based or functional assay.

For experiment [3], the target named is T2, human IL-23 protein (ACROBiosystems, …). Kind of experiment: cell-based or functional assay. This is another data set of the same source.
The target is the same in experiment [4]. Kind of experiment: ELISA, human IL-23 coated.
Experiment [5] has as its target T3, human IL-36R full-length protein stably expressed on CHO-K1 cells (human, UniProt Q9HB29 20-575).
T3 construct: FlpIn CHO-K1 line expressing the full-length protein; also called human IL-36R on the surface of CHO-K1 cells; CHO-K1 cells overexpressing human IL-36R
T3 sequence: T1 sequence (looked up)
Kind of experiment: FACS, CHO-K1 cells overexpressing human IL-36R. A general note: In flow cytometry, cells or beads pass a laser one at a time.

In experiment [6] the target is T2, human IL-23 protein (ACROBiosystems, …). Kind of experiment: SPR (Biacore 8K), antibody captured by anti-human IgG Fc, IL-23 as analyte.
For experiment [7], the target named is T4, Human IL-36R protein (His + Avi Tag), Kactus IL1-HM4L2 (human, UniProt Q9HB29 20-335).
T4 construct: Bought protein; also called human IL-36R antigen protein; Human IL-36R antigen
T4 sequence: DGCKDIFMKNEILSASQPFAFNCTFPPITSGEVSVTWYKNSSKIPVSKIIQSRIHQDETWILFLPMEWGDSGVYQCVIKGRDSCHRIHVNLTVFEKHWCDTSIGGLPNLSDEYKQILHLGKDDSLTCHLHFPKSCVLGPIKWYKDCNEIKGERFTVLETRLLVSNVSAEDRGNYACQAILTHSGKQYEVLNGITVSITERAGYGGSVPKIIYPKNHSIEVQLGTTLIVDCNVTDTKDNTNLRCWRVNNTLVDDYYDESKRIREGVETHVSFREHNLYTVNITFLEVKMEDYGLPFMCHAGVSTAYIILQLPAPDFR
Kind of experiment: SPR (Biacore 8K), antibody captured by anti-human IgG Fc, IL-36R as analyte. A general note: Surface plasmon resonance follows binding to a sensor surface in real time, without labels.

Experiment [8] deals with T2, human IL-23 protein (ACROBiosystems, …). As to the kind of experiment: cell-based or functional assay. This is another data set of the same source.
Experiment [9] deals with T5, Human IL-36R protein (His + Avi Tag, biotinylation), Kactus IL1-HM4L2B (human, UniProt Q9HB29 20-335, biotinylated).
T5 construct: Screening antigen of the phage panning; also called biotinylated human IL-36R; human IL-36R antigen (screening antigen)
T5 sequence: T4 sequence
Kind of experiment: phage panning on biotinylated human IL-36R, clone ELISA. (In general: In an ELISA, binding on a coated surface is turned into a signal by an enzyme label.)

The target of experiment [10] is T6, human IL-23 protein (Sino Biological, CT048-H08H) (human, UniProt Q9NPF7 20-189; P29460 23-328).
T6 sequence (looked up) 1: T2 sequence (looked up) 1
T6 sequence (looked up) 2: T2 sequence (looked up) 2
Kind of experiment: cell-based or functional assay.

The target of experiment [11] is T7, IL-23 (R&D Systems, 1290-IL-010) (UniProt Q9NPF7 20-189; P29460 23-328).
T7 sequence (looked up) 1: T2 sequence (looked up) 1
T7 sequence (looked up) 2: T2 sequence (looked up) 2
As to the kind of experiment: cell-based or functional assay.

The target in experiment [12] is T6, human IL-23 protein (Sino Biological, …). As to the kind of experiment: ELISA, test sample coated, His-tagged IL-23 in solution.
For experiment [13] the target is unchanged. Kind of experiment: SPR (Biacore 8K), antibody captured on Protein A chip, IL-23 as analyte.
Experiment [14] has the same target. As to the kind of experiment: competition ELISA, IL-23R coated, biotinylated IL-23 preincubated with antibody.

Where two headings read alike, the source gives them in different places.

B1: IL-36R-IL-23-01 (anti-IL-36R and anti-IL-23 bispecific antibody, VHH213_Hu07 on Hu29-19, Structure A) (bispecific antibody, human IgG1, kappa, L234A L235A)
heavy: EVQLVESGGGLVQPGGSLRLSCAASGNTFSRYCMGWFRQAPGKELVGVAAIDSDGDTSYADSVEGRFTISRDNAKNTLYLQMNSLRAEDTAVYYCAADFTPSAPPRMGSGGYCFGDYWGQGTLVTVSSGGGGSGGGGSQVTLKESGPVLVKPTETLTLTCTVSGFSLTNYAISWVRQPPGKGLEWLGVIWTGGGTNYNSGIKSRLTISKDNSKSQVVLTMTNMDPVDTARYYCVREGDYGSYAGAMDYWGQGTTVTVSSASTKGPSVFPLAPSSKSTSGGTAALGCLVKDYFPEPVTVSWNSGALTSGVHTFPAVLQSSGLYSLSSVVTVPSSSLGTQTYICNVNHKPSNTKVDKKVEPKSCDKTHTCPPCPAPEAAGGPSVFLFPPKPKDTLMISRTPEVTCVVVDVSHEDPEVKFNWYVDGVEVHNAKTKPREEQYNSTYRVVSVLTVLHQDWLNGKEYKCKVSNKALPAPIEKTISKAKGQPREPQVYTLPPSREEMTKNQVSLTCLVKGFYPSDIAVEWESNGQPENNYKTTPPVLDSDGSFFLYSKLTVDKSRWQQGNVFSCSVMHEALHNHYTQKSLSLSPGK
light: DIVLTQSPDSLAVSLGERATINCRASESVDYYGISSMHWFQQKPGQPPKLLIYRASNLESGIPARFSGSGSRTDFTLTISSLQAEDVAVYYCQQANKDPYTFGGGTKVEIKRTVAAPSVFIFPPSDEQLKSGTASVVCLLNNFYPREAKVQWKVDNALQSGNSQESVTEQDSKDSTYSLSSTLTLSKADYEKHKVYACEVTHQGLSSPVTKSFNRGEC
notes: VHH fused by a (G4S)2 linker to the N-terminus of the heavy chain; IgG1 L234A/L235A
Regarding B1, in experiment [1], the “IL-8 secretion (A431), IL-36α, IC50” value is 0.54 nM; the “IL-8 secretion (A431), IL-36β, IC50” value came to 0.2 nM; the “IL-8 secretion (A431), IL-36γ, IC50” value was determined as 0.06 nM. The “proliferation of BaF3-mIL-23R cells induced by IL-23, IC50” value (“proliferation … by IL-23, IC50” for short) in experiment [2] is 0.39 nM. In experiment [3], the “DB-STAT3-Luc2 reporter gene system IC50” value stood at 7 nM. The same molecule displayed an EC50 in experiment [4] of 1.21 nM. Further, in experiment [5], the midpoint of the response, the EC50, lay at 1.28 nM and the “Maximum MFI” value worked out at 11600 MFI. In experiment [6], the equilibrium dissociation constant (Kd) is 0.023 nM, the koff came out at 5.97e-05 s⁻¹ and the kon was found to be 2.6e+06 M⁻¹ s⁻¹. In addition, in experiment [7], the Kd is 6.47 nM, the koff came to 0.000123 s⁻¹ and the kon came out at 19100 M⁻¹ s⁻¹.

B2: IL-36R-IL-23-02 (anti-IL-36R and anti-IL-23 bispecific antibody, VHH162_Hu11 on Hu29-19, Structure A) (bispecific antibody, human IgG1, kappa, L234A L235A)
heavy: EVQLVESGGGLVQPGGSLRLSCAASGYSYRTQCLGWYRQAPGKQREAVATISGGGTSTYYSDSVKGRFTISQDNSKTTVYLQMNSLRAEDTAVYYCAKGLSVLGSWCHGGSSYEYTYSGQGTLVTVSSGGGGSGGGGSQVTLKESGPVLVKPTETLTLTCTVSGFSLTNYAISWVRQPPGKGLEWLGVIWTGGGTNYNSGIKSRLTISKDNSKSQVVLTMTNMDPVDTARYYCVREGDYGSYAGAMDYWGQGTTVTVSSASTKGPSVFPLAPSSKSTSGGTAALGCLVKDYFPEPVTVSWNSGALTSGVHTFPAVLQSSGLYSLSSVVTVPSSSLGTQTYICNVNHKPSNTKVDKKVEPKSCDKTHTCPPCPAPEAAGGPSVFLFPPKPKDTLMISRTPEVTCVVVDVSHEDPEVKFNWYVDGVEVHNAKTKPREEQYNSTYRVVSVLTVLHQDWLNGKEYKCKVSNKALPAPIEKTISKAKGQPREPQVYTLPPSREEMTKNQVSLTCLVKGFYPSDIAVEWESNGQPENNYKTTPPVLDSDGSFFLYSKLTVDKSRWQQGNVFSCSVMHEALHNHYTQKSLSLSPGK
light: B1 light
notes: VHH fused by a (G4S)2 linker to the N-terminus of the heavy chain; IgG1 L234A/L235A; also called IL-36R-1L-23-02
Turning to B2, in [1], the “IL-8 secretion (A431), IL-36α, IC50” value stood at 1.63 nM; the “IL-8 secretion (A431), IL-36β, IC50” value was 0.74 nM; the “IL-8 secretion (A431), IL-36γ, IC50” value turned out to be 0.21 nM. Besides, the “proliferation … by IL-23, IC50” value in experiment [8] came out at 0.5 nM. In experiment [3], the “DB-STAT3-Luc2 reporter gene system IC50” value was 8.8 nM. In experiment [4], this molecule came in with an EC50 of 0.49 nM. In experiment [5], the EC50 was 1.13 nM and the “Maximum MFI” value was determined as 11400 MFI. In experiment [6], this molecule had a Kd of 0.0235 nM, a koff of 6.83e-05 s⁻¹ and a kon of 2.9e+06 M⁻¹ s⁻¹. In addition, in experiment [7], the Kd is 15.9 nM, the koff came out at 0.000146 s⁻¹ and the kon was 9210 M⁻¹ s⁻¹.

B3: VHH162 (camelid nanobody clone from the phage library) (VHH)
VHH: DVQLVESGGGSVQPGGSLRLSCAASGYSYRTQCLGWYRQAPGKQREAVATISGGGTSTYYSDSVKGRFTISQDNARTTVYLSLTSLKPEDTATYYCAAGLSVLGSWCHGGSSYEYTYSGQGTQVTVSS
notes: As identified by panning and clone ELISA (phage or clone format not described)
For the molecule B3, in experiment [9], the binding result is “binds”.

B4: Hu29-19 (humanized anti-IL-23 antibody, hAb29VH5 and hAb29VL3) (antibody, human IgG1, kappa, L234A L235A, V domains shown)
VH: QVTLKESGPVLVKPTETLTLTCTVSGFSLTNYAISWVRQPPGKGLEWLGVIWTGGGTNYNSGIKSRLTISKDNSKSQVVLTMTNMDPVDTARYYCVREGDYGSYAGAMDYWGQGTTVTVSS
VL: DIVLTQSPDSLAVSLGERATINCRASESVDYYGISSMHWFQQKPGQPPKLLIYRASNLESGIPARFSGSGSRTDFTLTISSLQAEDVAVYYCQQANKDPYTFGGGTKVEIKR
With B4, the “Activity in inhibiting proliferation of BaF3-IL-23R cells (IC50, nM)” value in experiment [10] was found to be 0.194 nM. Besides, the “IC50 for inhibiting IL-17 secretion” value in experiment [11] was 0.0177 nM. For the same molecule, the figures for the “proliferation … by IL-23, IC50” value in [2] and in experiment [8] were 0.36 nM and 0.43 nM, respectively. In addition, the “DB-STAT3-Luc2 reporter gene system IC50” value in [3] is 5.1 nM. The EC50 is 0.55 nM in experiment [4] and 1.11 nM in experiment [12]. For the same molecule, the Kd stood at 0.0151 nM in experiment [13] and 0.0106 nM in experiment [6]. Moreover, the koff in experiment [13] was 4.08e-05 s⁻¹; in [6] it was 6.26e-05 s⁻¹. Moreover, the kon was 2.71e+06 M⁻¹ s⁻¹ in experiment [13] and 5.93e+06 M⁻¹ s⁻¹ in experiment [6]. In addition, in experiment [14], the concentration for half-maximal inhibition (IC50) came to 0.478 nM.
